The text below walks through data of article PMC10624832.

The target in experiment [1] is Hsp70 (UniProt P11142).
Experiment [2] has as its target Hsp70 T204A,S494C-AF488 (C267A, C574A, C603A). The experiment can be described thus: fluorescence polarisation; steady-state fluorescence anisotropy; 100 nM Hsp70 T204A,S494C-AF488 titrated with 0-1.0 mM full-length DNAJB6 WT or mutants; 20 min at 37 °C; 50 mM HEPES pH 8.0, 200 mM KCl, 10 mM MgCl, 2 mM ATP; one-site binding model. (Polarisation of emitted light reports the rotation of a fluorescent probe.)

For experiment [3], the target named is Hsp70 (UniProt P11142). The source holds these as a separate data set.
Experiment [4] addresses Hsp70 (UniProt P11142). The source holds these as a separate data set.
In experiment [5] the target is Hsp70 (UniProt P11142). The source holds these as a separate data set.

Some results are limits rather than exact numbers.

Chain of DNAJB6^WT (isoform b), full-length oligomeric, O75190-2 1-241 (natural protein) (O75190 other isoform, or with tags, fused parts or gaps): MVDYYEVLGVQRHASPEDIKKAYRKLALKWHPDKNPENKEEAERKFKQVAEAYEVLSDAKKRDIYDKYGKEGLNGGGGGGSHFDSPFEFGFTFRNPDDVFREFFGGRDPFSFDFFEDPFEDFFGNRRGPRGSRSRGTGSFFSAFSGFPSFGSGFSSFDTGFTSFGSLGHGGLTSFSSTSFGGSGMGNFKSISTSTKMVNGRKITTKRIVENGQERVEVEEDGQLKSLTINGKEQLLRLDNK
Chain of DNAJB6^JD-GF WT (res. 1-109) (O75190 1-109): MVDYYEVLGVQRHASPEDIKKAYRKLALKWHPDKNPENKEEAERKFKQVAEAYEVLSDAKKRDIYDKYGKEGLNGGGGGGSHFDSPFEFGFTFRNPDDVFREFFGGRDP
Chain of DNAJB6^JD (res. 1-72) (O75190 1-72): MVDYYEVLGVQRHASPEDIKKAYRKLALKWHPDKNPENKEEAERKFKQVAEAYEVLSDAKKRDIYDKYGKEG

“DNAJB6^WT (isoform b), full-length oligomeric, O75190-2 1-241 (natural protein)”: the steady-state ATPase activity of Hsp70 with full-length oligomeric DNAJB6, fold activation with Hsp70 [1] was 1.4 fold.
For the substance “full-length DNAJB6 F91I (from UniProt O75190-2 1-241) (natural protein)”, the Kd (as a rule, the equilibrium constant for the complex coming apart) in experiment [2] came out at 600 µM.
Regarding “DNAJB6^JD (res. 1-72) (from UniProt O75190 1-72) (domain or fragment)”, in the experiment with Hsp70 [3], the steady-state ATPase activity of Hsp70 (initial rate of phosphate release, PBP fluorescence); 0.25 μM Hsp70, 0.25 μM DNAJB6 variant stood at 1.74 nM Pi min^−1.
The substance “full-length DNAJB6 F100V (from UniProt O75190-2 1-241) (natural protein)” had a Kd in experiment [2] of 1.5 µM. This counts as single-digit micromolar.
For the substance “DNAJB6^JD-GF A50V (from UniProt O75190 1-109) (domain or fragment)”, in the experiment with Hsp70 [4], the steady-state ATPase activity of Hsp70 (initial rate of phosphate release); roughly 6-8-fold increase amounted to 1.24 nM Pi min^−1.
Take “full-length DNAJB6 F93L (from UniProt O75190-2 1-241) (natural protein)”: the equilibrium dissociation constant (Kd) in experiment [2] was determined as 290 µM.
Turning to “DNAJB6^JD-GF WT (res. 1-109) (from UniProt O75190 1-109) (domain or fragment)”, in the experiment with Hsp70 [5], the steady-state ATPase activity of Hsp70, fold activation over Hsp70 alone is 1.6 fold.
As for “DNAJB6^JD-GF F100V (from UniProt O75190 1-109) (domain or fragment)”, in the experiment with Hsp70 [4], the steady-state ATPase activity of Hsp70 (initial rate of phosphate release); roughly 6-8-fold increase was 1.64 nM Pi min^−1.
With “DNAJB6^JD-GF P96R (from UniProt O75190 1-109) (domain or fragment)”, the steady-state ATPase activity of Hsp70, fold enhancement of ATP hydrolysis rate with Hsp70 [4] was determined as 4 fold.
On to “full-length DNAJB6 A50V (from UniProt O75190-2 1-241) (natural protein)”, for which the Kd in experiment [2] was determined as 9 µM. This lies in the single-digit micromolar range.
As for “DNAJB6^JD-GF E54A (from UniProt O75190 1-109) (domain or fragment)”, the steady-state ATPase activity of Hsp70, fold enhancement of ATP hydrolysis rate with Hsp70 [4] was found to be 4 fold.
As for “full-length DNAJB6 P96R (from UniProt O75190-2 1-241) (natural protein)”, the Kd in experiment [2] was determined as 47 µM.
On to “DNAJB6^WT (isoform b), full-length oligomeric (from UniProt O75190-2 1-241) (natural protein)”, for which the Kd in experiment [2] was over 10000 µM.
